In US7462691:
pKd: −log10 of the molar value.

Biological target: recombinant secreted soluble PSCA with C-terminal 6XHis and MYC tag (human)
Assay: SPR (BIAcore), recombinant PSCA immobilised at low density (30 RU), mAb in solution

Chain of recombinant secreted soluble PSCA with C-terminal 6XHis and MYC tag (human) (chain, as listed by the source): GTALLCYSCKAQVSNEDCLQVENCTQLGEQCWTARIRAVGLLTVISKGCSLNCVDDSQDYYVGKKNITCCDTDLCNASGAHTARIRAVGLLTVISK

What does the source list for anti-PSCA monoclonal antibody 1G8?
pKd: 9.00; kon: 168000 M⁻¹ s⁻¹
